Among the data in article PMC7688965 are other: normalized enrichment (log2) WT Hop / K8A,K229A Hop values, retold here.

What all share (assay): IP-MS (HA-IP, label-free LC/MS-MS)
One experiment addresses AHSA1. Conditions: HA-tagged Hop exogenously overexpressed in KO1 cells; n = 2; read off a plot.
The target in a further experiment is CDC37. Conditions: HA-tagged Hop exogenously overexpressed in KO1 cells; n = 2; read off a plot.
A further experiment has as its target DNAJA1. Conditions: HA-tagged Hop exogenously overexpressed in KO1 cells; n = 2; read off a plot.
A further experiment has as its target DNAJA2. The following applies: HA-tagged Hop exogenously overexpressed in KO1 cells; n = 2; read off a plot.
A further experiment deals with HSPA4L. The following applies: HA-tagged Hop exogenously overexpressed in KO1 cells; n = 2; read off a plot.
For another experiment, the target named is HSPA4. Conditions: HA-tagged Hop exogenously overexpressed in KO1 cells; n = 2; read off a plot.
The next experiment deals with HSPA5. The following applies: HA-tagged Hop exogenously overexpressed in KO1 cells; n = 2; read off a plot.
A further experiment concerns the target HSPA6;HSPA7. Conditions: HA-tagged Hop exogenously overexpressed in KO1 cells; n = 2; read off a plot.
The target in the next experiment is HSPH1. Conditions: HA-tagged Hop exogenously overexpressed in KO1 cells; n = 2; read off a plot.
A further experiment concerns the target HUWE1. Conditions: HA-tagged Hop exogenously overexpressed in KO1 cells; n = 2; right graph; read off a plot.
The target of a further experiment is PSMC1. The following applies: HA-tagged Hop exogenously overexpressed in KO1 cells; n = 2; left graph; read off a plot.
The target of the next experiment is PSMC2. The following applies: HA-tagged Hop exogenously overexpressed in KO1 cells; n = 2; left graph; read off a plot.
Another experiment concerns the target PSMC3. Conditions: HA-tagged Hop exogenously overexpressed in KO1 cells; n = 2; left graph; read off a plot.
A further experiment has as its target PSMC4. Conditions: HA-tagged Hop exogenously overexpressed in KO1 cells; n = 2; left graph; read off a plot.
The next experiment has as its target PSMC5. Conditions: HA-tagged Hop exogenously overexpressed in KO1 cells; n = 2; left graph; read off a plot.
The target of another experiment is PSMD11. Conditions: HA-tagged Hop exogenously overexpressed in KO1 cells; n = 2; left graph; read off a plot.
A further experiment deals with PSMD12. Conditions: HA-tagged Hop exogenously overexpressed in KO1 cells; n = 2; left graph; read off a plot.
For a further experiment, the target named is PSMD13. The following applies: HA-tagged Hop exogenously overexpressed in KO1 cells; n = 2; left graph; read off a plot.
A further experiment deals with PSMD3. The following applies: HA-tagged Hop exogenously overexpressed in KO1 cells; n = 2; left graph; read off a plot.
The target of the next experiment is UBA1. The following applies: HA-tagged Hop exogenously overexpressed in KO1 cells; n = 2; right graph; read off a plot.
The target of a further experiment is UBE2N;UBE2NL. The following applies: HA-tagged Hop exogenously overexpressed in KO1 cells; n = 2; right graph; read off a plot.
The next experiment addresses USP10. Conditions: HA-tagged Hop exogenously overexpressed in KO1 cells; n = 2; right graph; read off a plot.
The next experiment addresses USP5. Conditions: HA-tagged Hop exogenously overexpressed in KO1 cells; n = 2; right graph; read off a plot.
For the next experiment, the target named is USP7. The following applies: HA-tagged Hop exogenously overexpressed in KO1 cells; n = 2; right graph; read off a plot.

Turning to “HA-tagged WT Hop (from UniProt P31948) K8A; K229A”, the other: normalized enrichment (log2) WT Hop / K8A,K229A Hop with AHSA1 turned out to be 3 log2; with CDC37, 3.2 log2; with DNAJA1, 3.9 log2; in the experiment with DNAJA2 it was 4.3 log2; with HSPA4L, 3 log2; with HSPA4, 1.7 log2. The other: normalized enrichment (log2) WT Hop / K8A,K229A Hop turned out to be 2.5 log2 in the experiment with HSPA5; 4.5 log2 with HSPA6;HSPA7; 4 log2 with HSPH1; 2.7 log2 with HUWE1; 0.95 log2 in the experiment with PSMC1; 0.65 log2 in the experiment with PSMC2. Moreover, the other: normalized enrichment (log2) WT Hop / K8A,K229A Hop with PSMC3 worked out at 1 log2; with PSMC4 it was 0.25 log2; with PSMC5, 1.3 log2; in the experiment with PSMD11, 1.7 log2; with PSMD12, 3.1 log2; with PSMD13 it was 2.1 log2. The other: normalized enrichment (log2) WT Hop / K8A,K229A Hop in the experiment with PSMD3 turned out to be 1.5 log2; with UBA1 it was 0.85 log2; with UBE2N;UBE2NL it was 0.8 log2; with USP10, 2.5 log2; with USP5, 2.3 log2; in the experiment with USP7 it was 2.9 log2.
